Data published in US20200040058A1 (JULIUS MAXIMILIANS UNIVERSIT T W RZBURG, published 2020).

B1: humanized R12 ROR1 CAR (other)
chain: QVQLVESGGALVQPGGSLTLSCKASGFDFSAYYMSWVRQAPGKGLEWIATIYPSSGKTYYAASVQGRFTISADNAKNTVYLQMNSLTAADTATYFCARDSYADDGALFNIWGQGTLVTVSSGGGGSGGGGSGGGGSQLVLTQSPSVSAALGSSAKITCTLSSAHKTDTIDWYQQLAGQAPRYLMYVQSDGSYEKRSGVPDRFSGSSSGADRYLIISSVQADDEADYYCGADYIGGYVFGGGTQLTVGESKYGPPCPPCPMFWVLVVVGGVLACYSLLVTVAFIIFWVKRGRKKLLYIFKQPFMRPVQTTQEEDGCSCRFPEEEEGGCELRVKFSRSADAPAYQQGQNQLYNELNLGRREEYDVLDKRRGRDPEMGGKPRRKNPQEGLYNELQKDKMAEAYSEIGMKGERRRGKGHDGLYQGLSTATKDTYDALHMQALPPR
notes: Chimeric antigen receptor with an scFv targeting domain, on primary human T cells; also called hR12 CAR; hR12
B2: humanized 2A2 ROR1 CAR (other)
chain: EVQLVQSGAEVKKPGASVKVSCKASGYTFSDYEMHWVRQAPGQGLEWLGAIDPETGGTAYNQKFKGRVTMTGDTSISTAYMELSRLTSDDTAVYYCTGYYDYDSFTYWGQGTLVSVSSGGGGSGGGGSGGGGSDIQMTQSPSSLSTSVGDRVTITCKASQNVDAAVAWYQQKPGKAPKLLIYSASNRYTGVASRFSGSGSGTDFTFTISSLQSEDLADYFCQQYDIYPYTFGQGTKLEIKESKYGPPCPPCPMFWVLVVVGGVLACYSLLVTVAFIIFWVKRGRKKLLYIFKQPFMRPVQTTQEEDGCSCRFPEEEEGGCELRVKFSRSADAPAYQQGQNQLYNELNLGRREEYDVLDKRRGRDPEMGGKPRRKNPQEGLYNELQKDKMAEAYSEIGMKGERRRGKGHDGLYQGLSTATKDTYDALHMQALPPR
notes: Chimeric antigen receptor with an scFv targeting domain, expressed on primary human T cells after lentiviral transduction; also called h2A2 CAR; h2A2
B3: non-humanized R12 ROR1 CAR (other)
chain: QEQLVESGGRLVTPGGSLTLSCKASGFDFSAYYMSWVRQAPGKGLEWIATIYPSSGKTYYATWVNGRFTISSDNAQNTVDLQMNSLTAADRATYFCARDSYADDGALFNIWGPGTLVTISSGGGGSGGGGSGGGGSELVLTQSPSVSAALGSPAKITCTLSSAHKTDTIDWYQQLQGEAPRYLMQVQSDGSYTKRPGVPDRFSGSSSGADRYLIIPSVQADDEADYYCGADYIGGYVFGGGTQLTVTG
notes: Chimeric antigen receptor on primary human T cells; also called R12 CAR; non-humanized R12 CAR; not shown: spacer, transmembrane, 4-1BB and CD3z parts of the non-humanized CAR are not spelled out; construct described only by re
B4: non-humanized 2A2 ROR1 CAR (other)
chain: QVQLQQSGAELVRPGASVTLSCKASGYTFSDYEMHWVIQTPVHGLEWIGAIDPETGGTAYNQKFKGKAILTADKSSSTAYMELRSLTSEDSAVYYCTGYYDYDSFTYWGQGTLVTVSAGGGGSGGGGSGGGGSDIVMTQSQKIMSTTVGDRVSITCKASQNVDAAVAWYQQKPGQSPKLLIYSASNRYTGVPDRFTGSGSGTDFTLTISNMQSEDLADYFCQQYDIYPYTFGGGTKLEIK
notes: Chimeric antigen receptor on primary human T cells; also called 2A2 CAR; non-humanized 2A2 CAR; not shown: spacer, transmembrane, 4-1BB and CD3z parts of the non-humanized CAR are not spelled out; construct described only by re

Experiments:
[1] = biological target: ROR1 on ROR1-positive target cells (K562-ROR1, MDA-MB-231, A549) (human, UniProt Q01973 30-937); assay: cell-based or functional assay
Chain of ROR1 on ROR1-positive target cells (K562-ROR1, MDA-MB-231, A549) (Q01973 30-937): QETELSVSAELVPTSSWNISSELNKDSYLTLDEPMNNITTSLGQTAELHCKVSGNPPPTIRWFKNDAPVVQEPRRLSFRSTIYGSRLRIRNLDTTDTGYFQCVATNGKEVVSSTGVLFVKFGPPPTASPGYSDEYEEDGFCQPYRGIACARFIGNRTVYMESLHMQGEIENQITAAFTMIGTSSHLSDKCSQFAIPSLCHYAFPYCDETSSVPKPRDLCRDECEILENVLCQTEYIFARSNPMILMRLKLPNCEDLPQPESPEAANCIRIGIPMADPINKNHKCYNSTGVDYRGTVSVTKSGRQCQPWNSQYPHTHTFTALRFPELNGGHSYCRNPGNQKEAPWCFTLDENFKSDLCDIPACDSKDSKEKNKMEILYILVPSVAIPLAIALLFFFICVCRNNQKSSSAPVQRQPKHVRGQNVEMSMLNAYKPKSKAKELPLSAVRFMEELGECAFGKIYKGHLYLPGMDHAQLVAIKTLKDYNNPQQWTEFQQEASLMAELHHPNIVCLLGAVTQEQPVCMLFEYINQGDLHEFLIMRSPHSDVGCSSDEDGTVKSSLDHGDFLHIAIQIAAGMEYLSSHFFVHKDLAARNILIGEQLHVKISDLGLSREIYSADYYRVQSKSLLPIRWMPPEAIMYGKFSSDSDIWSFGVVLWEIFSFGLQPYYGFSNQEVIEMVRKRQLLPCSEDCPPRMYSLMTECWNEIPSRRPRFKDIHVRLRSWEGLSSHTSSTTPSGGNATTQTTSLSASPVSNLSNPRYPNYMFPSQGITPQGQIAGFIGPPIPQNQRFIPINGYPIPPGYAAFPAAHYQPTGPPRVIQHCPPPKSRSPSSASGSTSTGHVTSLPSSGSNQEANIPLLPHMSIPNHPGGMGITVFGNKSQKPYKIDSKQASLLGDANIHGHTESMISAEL

[2] = biological target: T1, Recombinant aggregated ROR1 protein, AlexaFluor647-labeled (UniProt Q01973 30-403, limits assumed, labeled with AlexaFluor647); assay: flow cytometry; CAR T cells stained with 5.3 µg/ml AlexaFluor647-labeled aggregated ROR1
T1 construct: Soluble labelled protein used to stain CAR T cells; also called ROR1 antigen
T1 sequence (Q01973 30-403 limits assumed): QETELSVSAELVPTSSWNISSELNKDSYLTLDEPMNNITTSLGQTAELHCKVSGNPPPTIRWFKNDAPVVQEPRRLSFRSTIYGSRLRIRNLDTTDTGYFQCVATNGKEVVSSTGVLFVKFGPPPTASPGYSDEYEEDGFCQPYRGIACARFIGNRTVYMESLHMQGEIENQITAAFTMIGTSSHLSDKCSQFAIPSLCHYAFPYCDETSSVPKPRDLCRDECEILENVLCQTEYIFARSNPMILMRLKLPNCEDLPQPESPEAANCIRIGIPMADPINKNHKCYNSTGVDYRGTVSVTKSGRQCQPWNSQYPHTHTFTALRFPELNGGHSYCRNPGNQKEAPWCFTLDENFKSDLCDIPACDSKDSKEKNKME
Method: Afterwards the cells were washed with PBS, 0.25% FCS and analyzed by flow cytometry.
Recombinant aggregated ROR1 protein was labeled with the AlexaFluor647 labeling kit (ThermoFisher Scientific, MA) and used to stain T cells expressing ROR1 CARs. The T cells were washed once in PBS, 0.25% FCS and then resuspended in the same buffer containing a final concentration of 5.3 μg/ml labeled ROR1 protein and monoclonal αEGFRt antibody. After an incubation time of 15 min the cells were washed with an excess of PBS, 0.25% FCS and analyzed by flow cytometry.

Binder | proliferation index with MDA-MB-231 target cells, fold against the non-humanized R12 CAR [1] [fold] | percentage of T cells with a distinct AlexaFluor647 signal [2] [%] | percentage of T cells with high AlexaFluor647 signal [2] [%]
B1 | ~2 | 79 | 7.68
B2 |  | 92.1 | 20
B3 |  | 47.6 | 0.7
B4 |  | 62.7 | 2.61
